Results on 1 protein are retold here after paper PMC6905856, “Movement of accessible plasma membrane cholesterol by the GRAMD1 lipid transfer protein complex” (eLife, 2019).

The data set deals with the molecule itself. Nature of the data set: SEC; purified EGFP fusion of the luminal helix region alone on Superdex 200 increase 10/300 GL; 20 mM HEPES, 300 mM NaCl, 10% glycerol, 0.5 mM TCEP, pH 7.5; self-association judged from the elution volume.

B1: EGFP-tagged luminal helix region of wild-type GRAMD1b (EGFP–helix: EGFP–GRAMD1b 674–718) (domain or fragment, human, UniProt Q3KR37-1 674-718, looked up)
chain: SQTEWAQLLESQQKYHDTELQKWREIIKSSVMLLDQMKDSLINLQ
notes: GRAMD1b, human, luminal helix region, residues 674-718; Predicted molecular weight ~35 kDa; also called EGFP-linker-GRAMD1b luminal helix; EGFP–(GGGS)3–GRAMD1b luminal helix (674–718); source: E. coli BL21-DE3 Rosetta, purified (Co-TALON or Ni-NTA, gel filtration on Superdex 200 increase); not shown: EGFP with (GGGS)3 linker, N-terminal, kept
Consider B1, for which the binding result is reported as “binds”.
